Laboratory results: patent US20030203372A1, “Analysis method” (priority 2000, published 2003)

Columns and labels:
[1] = system: primary human cell cultures (11 cell types); experiment: Custom gene array, 11 human cell types in normoxia or hypoxia for 6 hr and 18 hr; type: cell-based;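 on mRNA expression level, #1 HY 18 hr: cell type #1 is adipocyte from subcutaneous adult adipose tissue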;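 on mRNA expression level, #1 HY 6 hr: cell type #1 is adipocyte from subcutaneous adult adipose tissue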;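 on mRNA expression level, #1 NO: cell type #1 is adipocyte from subcutaneous adult adipose tissue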;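 on mRNA expression level, #2 HY 18 hr: cell type #2 is fetal cardiomyocyte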;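 on mRNA expression level, #2 HY 6 hr: cell type #2 is fetal cardiomyocyte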;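 on mRNA expression level, #2 NO: cell type #2 is fetal cardiomyocyte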;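 on mRNA expression level, #3 HY 6 hr: cell type #3 is human umbilical vein endothelial cells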;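 on mRNA expression level, #3 NO: cell type #3 is human umbilical vein endothelial cells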;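 on mRNA expression level, #4 HY 18 hr: cell type #4 is adult dermal fibroblast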;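 on mRNA expression level, #4 HY 6 hr: cell type #4 is adult dermal fibroblast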;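 on mRNA expression level, #4 NO: cell type #4 is adult dermal fibroblast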;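 on mRNA expression level, #5 HY 6 hr: cell type #5 is adult hepatocyte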;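 on mRNA expression level, #5 NO: cell type #5 is adult hepatocyte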;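 on mRNA expression level, #6 HY 6 hr: cell type #6 is blood-derived macrophage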;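 on mRNA expression level, #6 NO: cell type #6 is blood-derived macrophage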
Procedure, shortened: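 Values are each gene's expression relative to its median over all cell types and conditions, after per-array normalisation to control genes and merging of replicate arrays. Cells were 11 human types, mostly unmodified primary cultures, kept in normoxia or exposed to hypoxia for 6 hr or 18 hr.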

human macrophages = experiment: Custom gene array, macrophages with no cytokines, IL-10 or LPS + IFN, in normoxia and hypoxia; type: cell-based; conditions: Table 15, referenced to the median value of that gene throughout all 6 conditions
Experimental: Macrophages were derived and cultured as described elsewhere in the specification. A total of 6 experimental conditions were analysed, as shown below. Where cells were treated with cytokines or hypoxia (0.1% oxygen), this was for 6 hr. Lipopolysaccharide (LPS) (from E.coli 026:B6; Sigma), gamma Interferon (IFN) and Interleukin-10 (IL-10) were all used at a final concentration of 100 ng/ml. The effect of gamma Interferon and Lipopolysaccharide is to activate macrophages, with a Th1 biased phenotype, as found in many inflammatory conditions. Interleukin-10 is a Th2 cytokine and de-activates macrophages, and suppresses their effector functions.

B1: p1D24 (nucleic acid, listed as Homo Sapiens)
DNA: TTCTATCAGAAATTGTATTTATTTACCAGCATTTATGGCAAATGGCCAGACCTGGGCAGGGTGGTAGCAATGATAGATTTTACAAATTAAGGCATTGTTCTTTATTTCAAANTTTTCATTTACCNATATTTTCCTTGGTCTTAGAAATATGAATANTTTAGAGCTGGCAATACTCACCATCAGGATATAATAAACGGAGGTTTCTTTNTCCGAAATCCATAAANTGTAGTANTACTCTNTTGTACTTTTAAAATTCCNATTTTTGCAGTNGGCTTCCTCTCAGTGATTTAGTTAGGNAGTTTTGGTACATTTTGGNGGGGTCATAAACATGTTCATAGGATAGGAGTACNGGGCATTTNTGGAAAAACCCG
modifications: EST array clone; misc_feature 112, 125, 156, 208, 224, 232, 239, 258, 270, 297, 316, 350,359: n = A,T,C or G
**Q.** How did the “mRNA expression level, #1 HY 6 hr” value ([1]; cell type #1, hypoxia 6 hr) turn out when B1 was run?
**A.** 0.71

**Q.** And the “mRNA expression level, #1 HY 18 hr” value ([1]; cell type #1, hypoxia 18 hr)?
**A.** 1.39

**Q.** What about the “mRNA expression level, #1 NO” value ([1]; cell type #1, normoxia) of the same molecule?
**A.** 0.98

**Q.** What about the “mRNA expression level, #2 HY 6 hr” value ([1]; cell type #2, hypoxia 6 hr) of the same molecule?
**A.** 1.98

**Q.** And the “mRNA expression level, #2 HY 18 hr” value ([1]; cell type #2, hypoxia 18 hr)?
**A.** 2.16

**Q.** What about the “mRNA expression level, #2 NO” value ([1]; cell type #2, normoxia) of the same molecule?
**A.** 1.55

**Q.** What about the “mRNA expression level, #3 HY 6 hr” value ([1]; cell type #3, hypoxia 6 hr) of the same molecule?
**A.** 1.47

**Q.** And the “mRNA expression level, #3 HY 18 hr” value ([1]; cell type #3, hypoxia 18 hr)?
**A.** 1.01

**Q.** What about the “mRNA expression level, #3 NO” value ([1]; cell type #3, normoxia) of the same molecule?
**A.** 1.18

**Q.** What about the “mRNA expression level, #4 HY 6 hr” value ([1]; cell type #4, hypoxia 6 hr) of the same molecule?
**A.** 0.49

**Q.** And the “mRNA expression level, #4 HY 18 hr” value ([1]; cell type #4, hypoxia 18 hr)?
**A.** 0.67

**Q.** What about the “mRNA expression level, #4 NO” value ([1]; cell type #4, normoxia) of the same molecule?
**A.** 0.74

**Q.** What about the “mRNA expression level, #5 HY 6 hr” value ([1]; cell type #5, hypoxia 6 hr) of the same molecule?
**A.** 1.94

**Q.** What about the “mRNA expression level, #5 NO” value ([1]; cell type #5, normoxia) of the same molecule?
**A.** 1.53

**Q.** What about the “mRNA expression level, #6 HY 6 hr” value ([1]; cell type #6, hypoxia 6 hr) of the same molecule?
**A.** 0.98

**Q.** And the “#6 HY 18 hr (mRNA expression level)” value ([1]; cell type #6, hypoxia 18 hr)?
**A.** 0.96

**Q.** What about the “mRNA expression level, #6 NO” value ([1]; cell type #6, normoxia) of the same molecule?
**A.** 0.90

**Q.** What about the “#7 HY 6 hr (mRNA expression level)” value ([1]; cell type #7, hypoxia 6 hr) of the same molecule?
**A.** 0.79

**Q.** And the “#7 HY 18 hr (mRNA expression level)” value ([1]; cell type #7, hypoxia 18 hr)?
**A.** 0.49

**Q.** What about the “#7 NO (mRNA expression level)” value ([1]; cell type #7, normoxia) of the same molecule?
**A.** 0.71

**Q.** And the “#8 HY 6 hr (mRNA expression level)” value ([1]; cell type #8, hypoxia 6 hr)?
**A.** 0.90

**Q.** And the “#8 HY 18 hr (mRNA expression level)” value ([1]; cell type #8, hypoxia 18 hr)?
**A.** 0.93

**Q.** What about the “#8 NO (mRNA expression level)” value ([1]; cell type #8, normoxia) of the same molecule?
**A.** 0.53

**Q.** What about the “#9 HY 6 hr (mRNA expression level)” value ([1]; cell type #9, hypoxia 6 hr) of the same molecule?
**A.** 0.51

**Q.** What about the “#9 HY 18 hr (mRNA expression level)” value ([1]; cell type #9, hypoxia 18 hr) of the same molecule?
**A.** 0.43

**Q.** And the “#9 NO (mRNA expression level)” value ([1]; cell type #9, normoxia)?
**A.** 0.81

**Q.** And the “#10 HY 6 hr (mRNA expression level)” value ([1]; cell type #10, hypoxia 6 hr)?
**A.** 10.9

**Q.** What about the “#10 HY 18 hr (mRNA expression level)” value ([1]; cell type #10, hypoxia 18 hr) of the same molecule?
**A.** 11.79

**Q.** What about the “#10 NO (mRNA expression level)” value ([1]; cell type #10, normoxia) of the same molecule?
**A.** 4.63

**Q.** What about the “#11 HY 6 hr (mRNA expression level)” value ([1]; cell type #11, hypoxia 6 hr) of the same molecule?
**A.** 2.23

**Q.** And the “#11 HY 18 hr (mRNA expression level)” value ([1]; cell type #11, hypoxia 18 hr)?
**A.** 1.65

**Q.** What about the “#11 NO (mRNA expression level)” value ([1]; cell type #11, normoxia) of the same molecule?
**A.** 1.85

**Q.** And the “HIGHEST FOLD CHANGE IN HYPOXIA (hr hypoxia + cell type)” value ([1]; hypoxia/normoxia induction ratio, 18 hr renal epithelial)?
**A.** 2.55 (18 hr renal epithelial) fold

**Q.** And the “mRNA EXPRESSION (experimental condition) #1” value (human macrophages; #1 no cytokines/normoxia)?
**A.** 0.58

**Q.** And the “mRNA EXPRESSION (experimental condition) #2” value (human macrophages; #2 no cytokines/hypoxia)?
**A.** 0.71

**Q.** And the “mRNA EXPRESSION (experimental condition) #3” value (human macrophages; #3 IL-10/normoxia)?
**A.** 1.00

**Q.** What about the “mRNA EXPRESSION (experimental condition) #4” value (human macrophages; #4 IL-10/hypoxia) of the same molecule?
**A.** 1.32

**Q.** And the “mRNA EXPRESSION (experimental condition) #5” value (human macrophages; #5 LPS/IFN/normoxia)?
**A.** 1.56

**Q.** What about the “mRNA EXPRESSION (experimental condition) #6” value (human macrophages; #6 LPS/IFN/hypoxia) of the same molecule?
**A.** 2.59
